{"source": "patent US20240425885", "assay_in_all_cases": "cleavage_in_vitro", "key": {"[1]": {"tested_on": "T1, OMNI-91 (metagenomic, unknown)", "T1 sequence": "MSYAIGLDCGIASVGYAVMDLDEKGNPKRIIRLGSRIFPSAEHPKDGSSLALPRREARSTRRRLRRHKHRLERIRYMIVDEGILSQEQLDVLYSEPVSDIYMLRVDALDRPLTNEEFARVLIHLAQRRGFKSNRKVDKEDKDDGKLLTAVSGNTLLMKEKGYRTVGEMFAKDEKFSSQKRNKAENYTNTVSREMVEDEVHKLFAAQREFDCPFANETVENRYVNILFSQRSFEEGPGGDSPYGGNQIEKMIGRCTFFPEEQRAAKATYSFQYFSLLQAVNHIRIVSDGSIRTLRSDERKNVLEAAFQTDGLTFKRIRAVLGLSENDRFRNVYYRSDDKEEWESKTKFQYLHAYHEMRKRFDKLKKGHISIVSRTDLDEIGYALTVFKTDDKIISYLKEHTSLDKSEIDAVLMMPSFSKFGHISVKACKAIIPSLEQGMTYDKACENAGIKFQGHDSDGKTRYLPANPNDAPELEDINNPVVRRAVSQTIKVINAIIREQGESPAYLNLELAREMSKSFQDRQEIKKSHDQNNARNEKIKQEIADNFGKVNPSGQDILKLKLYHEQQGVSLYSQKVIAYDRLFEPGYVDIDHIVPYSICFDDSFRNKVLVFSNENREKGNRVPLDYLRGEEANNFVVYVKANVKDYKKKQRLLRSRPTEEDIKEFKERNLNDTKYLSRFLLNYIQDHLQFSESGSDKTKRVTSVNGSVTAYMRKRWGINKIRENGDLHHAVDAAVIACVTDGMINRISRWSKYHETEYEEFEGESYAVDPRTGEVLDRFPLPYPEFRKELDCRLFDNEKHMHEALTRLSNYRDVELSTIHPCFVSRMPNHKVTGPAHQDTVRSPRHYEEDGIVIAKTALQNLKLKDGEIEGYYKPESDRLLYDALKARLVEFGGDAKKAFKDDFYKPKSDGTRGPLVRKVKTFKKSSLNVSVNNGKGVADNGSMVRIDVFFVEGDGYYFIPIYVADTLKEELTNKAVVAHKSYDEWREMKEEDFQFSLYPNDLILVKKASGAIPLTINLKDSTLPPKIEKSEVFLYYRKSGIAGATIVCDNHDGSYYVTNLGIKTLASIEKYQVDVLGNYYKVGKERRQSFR", "conditions": "TXTL; PAM NNGNRTNN"}, "[2]": {"tested_on": "T2, OMNI-128 (metagenomic, unknown)", "T2 sequence": "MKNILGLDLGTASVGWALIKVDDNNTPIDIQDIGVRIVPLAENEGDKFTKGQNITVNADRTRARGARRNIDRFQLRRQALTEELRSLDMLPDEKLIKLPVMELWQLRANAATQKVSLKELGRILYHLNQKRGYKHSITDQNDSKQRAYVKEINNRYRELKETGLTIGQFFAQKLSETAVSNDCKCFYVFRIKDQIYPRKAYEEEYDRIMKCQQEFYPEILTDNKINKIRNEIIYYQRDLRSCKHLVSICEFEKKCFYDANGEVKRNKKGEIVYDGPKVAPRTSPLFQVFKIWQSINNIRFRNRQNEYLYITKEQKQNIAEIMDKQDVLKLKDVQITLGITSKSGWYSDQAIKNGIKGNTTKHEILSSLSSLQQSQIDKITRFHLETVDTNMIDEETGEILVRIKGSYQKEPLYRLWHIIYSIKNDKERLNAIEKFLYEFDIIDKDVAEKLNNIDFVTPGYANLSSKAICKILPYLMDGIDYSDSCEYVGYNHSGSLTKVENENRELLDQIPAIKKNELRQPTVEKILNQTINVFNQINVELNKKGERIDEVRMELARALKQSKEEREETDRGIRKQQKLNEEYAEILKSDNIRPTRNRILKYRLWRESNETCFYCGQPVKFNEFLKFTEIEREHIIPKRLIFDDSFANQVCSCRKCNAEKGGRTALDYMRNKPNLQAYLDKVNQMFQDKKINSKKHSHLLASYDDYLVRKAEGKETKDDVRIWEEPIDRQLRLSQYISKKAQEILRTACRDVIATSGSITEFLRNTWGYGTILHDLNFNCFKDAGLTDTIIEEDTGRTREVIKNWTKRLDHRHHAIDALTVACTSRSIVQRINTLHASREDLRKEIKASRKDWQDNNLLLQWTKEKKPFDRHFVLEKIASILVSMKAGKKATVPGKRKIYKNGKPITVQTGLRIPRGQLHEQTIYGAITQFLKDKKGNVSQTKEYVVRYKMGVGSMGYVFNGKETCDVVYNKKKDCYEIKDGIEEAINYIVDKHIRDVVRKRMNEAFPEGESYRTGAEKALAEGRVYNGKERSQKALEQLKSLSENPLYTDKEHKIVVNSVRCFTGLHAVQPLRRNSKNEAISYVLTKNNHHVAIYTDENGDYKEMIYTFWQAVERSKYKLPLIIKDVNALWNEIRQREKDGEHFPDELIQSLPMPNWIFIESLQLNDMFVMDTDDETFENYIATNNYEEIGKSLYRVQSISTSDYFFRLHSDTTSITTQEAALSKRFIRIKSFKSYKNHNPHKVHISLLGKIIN", "conditions": "TXTL; PAM NRYHCCNN"}, "[3]": {"tested_on": "T3, OMNI-131 (metagenomic, unknown)", "T3 sequence": "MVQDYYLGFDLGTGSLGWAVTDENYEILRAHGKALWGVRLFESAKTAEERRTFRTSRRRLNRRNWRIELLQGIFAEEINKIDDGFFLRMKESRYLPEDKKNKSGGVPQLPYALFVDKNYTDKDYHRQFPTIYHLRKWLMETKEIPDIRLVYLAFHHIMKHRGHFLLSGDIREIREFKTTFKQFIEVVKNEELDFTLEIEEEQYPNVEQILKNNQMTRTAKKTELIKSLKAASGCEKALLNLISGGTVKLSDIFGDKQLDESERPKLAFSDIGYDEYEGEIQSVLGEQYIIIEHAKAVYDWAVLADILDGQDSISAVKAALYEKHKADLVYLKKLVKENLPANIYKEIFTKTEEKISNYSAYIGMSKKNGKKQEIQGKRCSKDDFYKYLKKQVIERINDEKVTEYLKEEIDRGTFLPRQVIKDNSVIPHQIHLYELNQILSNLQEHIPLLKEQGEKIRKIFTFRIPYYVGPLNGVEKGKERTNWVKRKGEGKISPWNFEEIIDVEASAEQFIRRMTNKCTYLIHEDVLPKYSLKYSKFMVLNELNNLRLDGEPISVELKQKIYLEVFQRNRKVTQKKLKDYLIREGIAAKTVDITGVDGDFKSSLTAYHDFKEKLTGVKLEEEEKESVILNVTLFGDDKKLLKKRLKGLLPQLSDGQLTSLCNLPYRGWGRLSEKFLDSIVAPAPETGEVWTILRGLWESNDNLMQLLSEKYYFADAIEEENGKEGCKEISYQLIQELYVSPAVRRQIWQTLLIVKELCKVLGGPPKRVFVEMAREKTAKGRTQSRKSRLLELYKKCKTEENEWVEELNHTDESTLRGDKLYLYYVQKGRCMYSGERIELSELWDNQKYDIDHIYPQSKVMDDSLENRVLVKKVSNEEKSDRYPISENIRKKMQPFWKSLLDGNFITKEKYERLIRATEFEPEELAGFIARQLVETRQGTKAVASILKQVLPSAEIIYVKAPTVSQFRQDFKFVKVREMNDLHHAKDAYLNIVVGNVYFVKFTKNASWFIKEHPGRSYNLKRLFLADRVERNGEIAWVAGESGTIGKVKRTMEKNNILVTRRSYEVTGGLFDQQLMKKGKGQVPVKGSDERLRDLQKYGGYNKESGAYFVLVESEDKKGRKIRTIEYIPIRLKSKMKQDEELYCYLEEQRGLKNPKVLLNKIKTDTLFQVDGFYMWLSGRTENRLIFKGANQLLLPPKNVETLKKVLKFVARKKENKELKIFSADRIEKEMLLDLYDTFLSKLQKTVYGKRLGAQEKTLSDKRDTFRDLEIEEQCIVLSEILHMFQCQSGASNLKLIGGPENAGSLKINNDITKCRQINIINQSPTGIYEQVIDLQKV", "conditions": "TXTL; PAM NRWRCCNN"}, "[4]": {"tested_on": "T4, OMNI-129 (metagenomic, unknown)", "T4 sequence": "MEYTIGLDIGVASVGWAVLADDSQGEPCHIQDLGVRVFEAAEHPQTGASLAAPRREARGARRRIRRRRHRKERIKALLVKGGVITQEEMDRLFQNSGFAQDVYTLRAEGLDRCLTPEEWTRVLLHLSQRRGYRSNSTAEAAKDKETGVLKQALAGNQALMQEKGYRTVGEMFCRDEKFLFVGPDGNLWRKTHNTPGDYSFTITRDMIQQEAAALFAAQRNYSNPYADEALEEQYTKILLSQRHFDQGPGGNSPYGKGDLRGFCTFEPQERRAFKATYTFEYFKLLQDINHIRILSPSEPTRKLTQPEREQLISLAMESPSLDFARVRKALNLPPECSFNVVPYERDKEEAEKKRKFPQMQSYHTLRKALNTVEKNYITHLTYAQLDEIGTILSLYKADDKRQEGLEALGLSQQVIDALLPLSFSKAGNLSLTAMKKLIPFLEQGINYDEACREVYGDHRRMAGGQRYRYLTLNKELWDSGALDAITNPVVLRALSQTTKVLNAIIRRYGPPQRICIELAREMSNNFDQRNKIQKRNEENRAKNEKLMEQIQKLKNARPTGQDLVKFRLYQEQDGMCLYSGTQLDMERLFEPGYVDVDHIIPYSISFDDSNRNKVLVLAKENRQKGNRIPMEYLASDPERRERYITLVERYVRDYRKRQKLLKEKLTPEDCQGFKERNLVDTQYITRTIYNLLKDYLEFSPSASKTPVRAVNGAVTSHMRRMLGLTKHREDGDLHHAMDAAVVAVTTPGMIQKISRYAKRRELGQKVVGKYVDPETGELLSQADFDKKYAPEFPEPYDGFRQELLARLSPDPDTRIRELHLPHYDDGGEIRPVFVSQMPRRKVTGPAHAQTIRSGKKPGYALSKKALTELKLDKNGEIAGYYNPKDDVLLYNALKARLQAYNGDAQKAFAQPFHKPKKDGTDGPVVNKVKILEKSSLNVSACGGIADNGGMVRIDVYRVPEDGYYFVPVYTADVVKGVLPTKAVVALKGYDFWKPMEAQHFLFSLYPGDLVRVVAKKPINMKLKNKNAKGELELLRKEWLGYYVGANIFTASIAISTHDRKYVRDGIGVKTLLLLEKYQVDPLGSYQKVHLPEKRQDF", "conditions": "TXTL; PAM NNNNGAAA"}}}
{"sequence": "GGAAGAGCAGAGCCUUGGUCUCGUUGUAGUCCCCUCGUAGUGAAAACUAUCAGGUCACUACAAUAAAGUAGAACACUGAAAAGCUCUGACGGCCCACUUUCCGUGGGUCGUCAUCUUUUUU / GGAAGAGCAGAGCCTTGGTCTCNNNNNNNN / NNNNNNNNGAGACCAAGGCTCTGCTCTTCC [T2 sgRNA 2 V1 ; T2 protospacer + 8N PAM library (pbPOS T2)]", "values": [{"measurement": "activity (1-depletion score)", "setting": "[1]", "value": 0.96}]}
{"sequence": "GGAAGAGCAGAGCCUUGGUCUCGUUGUGAUUUGCUGAAGAAAUUCAGCAAAUCACAAUAAGGAUUAUUCCGUUGUGAAAACAUUCAAGGCGGCGCAAGUCGCCUUUUUU / GGAAGAGCAGAGCCTTGGTCTCNNNNNNNN / NNNNNNNNGAGACCAAGGCTCTGCTCTTCC [T2 sgRNA 29 V1 ; T2 protospacer + 8N PAM library (pbPOS T2)]", "values": [{"measurement": "activity (1-depletion score)", "setting": "[2]", "value": 0.87}]}
{"sequence": "GGAAGAGCAGAGCCUUGGUCUCGUUUGAGAAUGAUGUAAGAAAUUACAUCAUAAGUUCAAAUAACGAUUUAUCGAAGACGCCGUUUAUAACGGCCCACAGUGAGUGGAAAGAAAGCUGUUGCUCAUAGGAGCAGCAGUUUUUU / GGAAGAGCAGAGCCTTGGTCTCNNNNNNNN / NNNNNNNNGAGACCAAGGCTCTGCTCTTCC [T2 sgRNA 31 V1 ; T2 protospacer + 8N PAM library (pbPOS T2)]", "values": [{"measurement": "activity (1-depletion score)", "setting": "[3]", "value": 0.95}]}
{"sequence": "GGAAGAGCAGAGCCUUGGUCUCGUUGUAGUUCCCUAAUGUUGAAAGACAUUAGGUUACUGCGAUCAGGCAGUAUGCCUCAGAGCUCCGCCCUAACCACGUUUUGUGGUUGGGGCGUCUUUGCAUUUUUU / GGAAGAGCAGAGCCTTGGTCTCNNNNNNNN / NNNNNNNNGAGACCAAGGCTCTGCTCTTCC [T2 sgRNA 30 V1 ; T2 protospacer + 8N PAM library (pbPOS T2)]", "values": [{"measurement": "activity (1-depletion score)", "setting": "[4]", "value": 0.95}]}
